Article PMC9496334, “In Silico Maturation of a Nanomolar Antibody against the Human CXCR2” (Biomolecules, 2022)

T1: Biotin-labeled human CXCR2 N-terminal extracellular peptide (pepN48) (Homo sapiens, UniProt P25025, biotin label (position not given))
T1 construct: CXC chemokine receptor 2 (CXCR2, interleukin 8 receptor beta), human, the first 48 residues of the protein; Held on the streptavidin chip by its biotin; also called N-terminal peptide; peptide of extracellular N-terminal domain of human CXCR2
T1 chain: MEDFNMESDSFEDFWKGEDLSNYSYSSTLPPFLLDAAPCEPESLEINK

B1: abN48 (antibody, V domains shown)
VH: QVQLVQSGAEVKKPGSSVKVSCKASGGTLSSYAISWVRQAPGQGPEWMGWINPNSGGTNYAQKFQGRVTMTRDTSISTAYMELSRLRPDDTAVYYCASGYCSSTSCYDYWGQGTLVTVSS
VL: QAVLTQPSSLSASPGASVSLTCTLRSGINVGAYRIYWYQQKPGSPPQFLLRYKSDSDKQQGSGVPSRFSGSRDASANAGILLISGLRSEDEADYYCAIWHSSAWVFGGGTQLTVL
notes: VH of abN48; constant region of the human IgG1 heavy chain, from the pFuse heavy-chain vector; VL of abN48, the same for all studied antibodies; light-chain constant region of the pFuse light-chain vector pfuse2ss-hcll2; Full-length IgG1 in the experiments; the crystal structure 6KVF holds the Fab; also called abN48 antibody; source: 293F cells, co-transfected, purified from the medium (HiTrap …)
B2: abN48-1 (antibody, V domains shown)
VH: QVQLVQSGAEVKKPGSSVKVSCKASGGTLSSYAISWVRQAPGQGPEWMGWINPNSGGTNYAQKFQGRVTMTRDTSISTAYMELSRLRPDDTAVYYCASGFCTRTICFVYWGQGTLVTVSS
VL: QAVLTQPSSLSASPGASVSLTCTLRSGINVGAYRIYWYQQKPGSPPQFLLRYKSDSDKQQGSGVPSRFSGSRDASANAGILLISGLRSEDEADYYCAIWHSSAWVFGGGTQLTVL
notes: parent VH in PDB 6KVF; constant region of the human IgG1 heavy chain, from the pFuse heavy-chain vector; as the VL of the light chain of m1; light-chain constant region of the pFuse light-chain vector pfuse2ss-hcll2; Full-length IgG1; source: 293F cells, co-transfected, purified from the medium (HiTrap Protein A)
B3: abN48-3 (antibody, V domains shown)
VH: QVQLVQSGAEVKKPGSSVKVSCKASGGTLSSYAISWVRQAPGQGPEWMGWINPNSGGTNYAQKFQGRVTMTRDTSISTAYMELSRLRPDDTAVYYCASGYCSFAICFDSWGQGTLVTVSS
VL: QAVLTQPSSLSASPGASVSLTCTLRSGINVGAYRIYWYQQKPGSPPQFLLRYKSDSDKQQGSGVPSRFSGSRDASANAGILLISGLRSEDEADYYCAIWHSSAWVFGGGTQLTVL
notes: as for B2
B4: abN48-28 (antibody, V domains shown)
VH: QVQLVQSGAEVKKPGSSVKVSCKASGGTLSSYAISWVRQAPGQGPEWMGWINPNSGGTNYAQKFQGRVTMTRDTSISTAYMELSRLRPDDTAVYYCASGYCSPSGCYVYWGQGTLVTVSS
VL: QAVLTQPSSLSASPGASVSLTCTLRSGINVGAYRIYWYQQKPGSPPQFLLRYKSDSDKQQGSGVPSRFSGSRDASANAGILLISGLRSEDEADYYCAIWHSSAWVFGGGTQLTVL
notes: as for B2
B5: abN48-2 (antibody, V domains shown)
VH: QVQLVQSGAEVKKPGSSVKVSCKASGGTLSSYAISWVRQAPGQGPEWMGWINPNSGGTNYAQKFQGRVTMTRDTSISTAYMELSRLRPDDTAVYYCASGYCSRTRCYDYWGQGTLVTVSS
VL: QAVLTQPSSLSASPGASVSLTCTLRSGINVGAYRIYWYQQKPGSPPQFLLRYKSDSDKQQGSGVPSRFSGSRDASANAGILLISGLRSEDEADYYCAIWHSSAWVFGGGTQLTVL
notes: VH of abN48-2: as the VH of m1 with two serines of CDR3 changed to arginines; parent VH in PDB 6KVF; constant region of the human IgG1 heavy chain, from the pFuse heavy-chain vector; as the VL of the light chain of m1; light-chain constant region of the pFuse light-chain vector pfuse2ss-hcll2; Full-length IgG1; source: 293F cells, co-transfected, purified from the medium (HiTrap Protein A)
B6: abN48-10 (antibody, V domains shown)
VH: QVQLVQSGAEVKKPGSSVKVSCKASGGTLSSYAISWVRQAPGQGPEWMGWINPNSGGTNYAQKFQGRVTMTRDTSISTAYMELSRLRPDDTAVYYCASGYCSRFNCKDYWGQGTLVTVSS
VL: QAVLTQPSSLSASPGASVSLTCTLRSGINVGAYRIYWYQQKPGSPPQFLLRYKSDSDKQQGSGVPSRFSGSRDASANAGILLISGLRSEDEADYYCAIWHSSAWVFGGGTQLTVL
notes: as for B2
B7: abN48-29 (antibody, V domains shown)
VH: QVQLVQSGAEVKKPGSSVKVSCKASGGTLSSYAISWVRQAPGQGPEWMGWINPNSGGTNYAQKFQGRVTMTRDTSISTAYMELSRLRPDDTAVYYCASGYCGRARCTSFWGQGTLVTVSS
VL: QAVLTQPSSLSASPGASVSLTCTLRSGINVGAYRIYWYQQKPGSPPQFLLRYKSDSDKQQGSGVPSRFSGSRDASANAGILLISGLRSEDEADYYCAIWHSSAWVFGGGTQLTVL
notes: as for B2
B8: abN48-38 (antibody, V domains shown)
VH: QVQLVQSGAEVKKPGSSVKVSCKASGGTLSSYAISWVRQAPGQGPEWMGWINPNSGGTNYAQKFQGRVTMTRDTSISTAYMELSRLRPDDTAVYYCASGYCSRSRCYDYWGQGTLVTVSS
VL: QAVLTQPSSLSASPGASVSLTCTLRSGINVGAYRIYWYQQKPGSPPQFLLRYKSDSDKQQGSGVPSRFSGSRDASANAGILLISGLRSEDEADYYCAIWHSSAWVFGGGTQLTVL
notes: as for B2
B9: abN48-8 (antibody, V domains shown)
VH: QVQLVQSGAEVKKPGSSVKVSCKASGGTLSSYAISWVRQAPGQGPEWMGWINPNSGGTNYAQKFQGRVTMTRDTSISTAYMELSRLRPDDTAVYYCASGYCNRTRCYDHWGQGTLVTVSS
VL: QAVLTQPSSLSASPGASVSLTCTLRSGINVGAYRIYWYQQKPGSPPQFLLRYKSDSDKQQGSGVPSRFSGSRDASANAGILLISGLRSEDEADYYCAIWHSSAWVFGGGTQLTVL
notes: as for B2

Assays:
[1] = target: T1, Biotin-labeled human CXCR2 N-terminal …; experiment: SPR; biotin-labeled pepN48 immobilised on a streptavidin Series S Sensor Chip SA; Biacore T200; IgG1 antibodies injected as analytes in HBS-EP+ buffer pH 7.4; kinetics fitted globally; conditions: both partners purified
[2] = target: T1, Biotin-labeled human CXCR2 N-terminal …; experiment: as above; conditions: both partners purified

Row | Binder | Kd [1] [nM] | other results
1 | B1 | 1.3 | 
2 | B2 | 0.26 | 
3 | B3 | 2 | 
4 | B4 | 0.65 | 
5 | B5 |  | Kd [2]: 0.11 nM; koff [2]: 0.00027 s⁻¹; kon [2]: 2.5e+06 M⁻¹ s⁻¹
6 | B6 | 0.27 | 
7 | B7 | 0.13 | 
8 | B8 | 0.23 | 
9 | B9 | 0.83 | 
